Reference: the supplement of paper PMC10065799, “High-throughput profiling of sequence recognition by tyrosine kinases and SH2 domains using bacterial peptide display” (eLife, 2023)

Target: FGFR3 (UniProt P22607)
Assay: phosphorylation enrichment, bacterial display (enrichment ratio); higher = better substrate or ligand; peptides without Tyr show the background
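Also: 11-residue human phosphosite peptides and single-mutation variants displayed on the E. coli surface, counted by deep sequencing, each peptide's frequency after selection divided by its frequency in the unselected input library; frequency after pTyr selection over input frequency; kinase dosed for 20-30% of maximal phosphorylation in three min.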

Sequence of FGFR3 (P22607 whole entry, looked up): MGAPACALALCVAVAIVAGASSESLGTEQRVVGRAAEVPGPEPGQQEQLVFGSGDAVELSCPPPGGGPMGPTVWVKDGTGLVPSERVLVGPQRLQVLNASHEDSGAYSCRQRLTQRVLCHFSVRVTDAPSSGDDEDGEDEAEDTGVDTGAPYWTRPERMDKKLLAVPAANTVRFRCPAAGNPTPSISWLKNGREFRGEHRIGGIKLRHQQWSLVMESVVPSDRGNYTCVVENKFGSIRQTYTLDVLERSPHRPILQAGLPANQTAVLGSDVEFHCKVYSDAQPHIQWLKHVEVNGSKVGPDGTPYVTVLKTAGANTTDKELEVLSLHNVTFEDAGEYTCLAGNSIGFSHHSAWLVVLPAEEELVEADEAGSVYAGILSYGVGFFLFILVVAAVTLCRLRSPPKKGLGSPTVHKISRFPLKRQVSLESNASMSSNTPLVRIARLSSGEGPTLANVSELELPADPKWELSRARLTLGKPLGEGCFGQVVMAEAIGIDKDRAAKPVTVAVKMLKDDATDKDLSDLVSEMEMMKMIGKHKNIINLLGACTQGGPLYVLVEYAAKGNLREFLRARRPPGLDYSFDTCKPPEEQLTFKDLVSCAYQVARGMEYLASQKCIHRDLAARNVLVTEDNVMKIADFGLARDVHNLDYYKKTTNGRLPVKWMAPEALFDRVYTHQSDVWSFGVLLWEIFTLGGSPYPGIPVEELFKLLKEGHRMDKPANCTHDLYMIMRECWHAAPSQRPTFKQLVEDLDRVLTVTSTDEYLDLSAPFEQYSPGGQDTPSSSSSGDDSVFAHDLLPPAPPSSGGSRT

Row | Sequence | phosphorylation enrichment
1 | KSEKVYTRHGV [FLOT1_Y56] | 0.341
2 | KFLVGYEMLAQ [GALT_Y339_M336L] | 0.661
3 | QWRTKYEMDAI [MYH7_Y1375_T1377M] | 0.843
4 | GGCQEYTGAPY [NAXD_Y85] | 0.843
5 | CITIHYNFMCN [TP53_Y234_T230I_YF] | 0.886
6 | QLQTTYPSSDN [MAX_Y115_N114T] | 0.626
7 | FTGDIYSSSNL [LZTR1_Y141_N143S_YF] | 0.588
8 | QPGDICHQTWA [GBA_Y244_Y244C] | 0.608
9 | VIERSYTSADG [DHCR7_Y382_C380R] | 0.466
10 | KVKGEYDMTVP [AHNAK_Y964] | 0.607
11 | SVQVEYMKTIL [GLYATL2_Y127_D126E] | 0.578
12 | EKLQQYLAPGM [EPHB3_Y600_I601L] | 0.493
13 | DVAKEYGHLLP [HRC_Y99_S96A] | 0.522
14 | KACNPYKPPGP | 0.589
15 | VFGVSYDEYRY [CFTR_Y512_I507V] | 0.604
16 | NFFEFYVDDPP [GCHFR_Y48_YF] | 0.925
17 | RQGKDYVGAIP [KDR_Y951] | 0.409

Row | Sequence | phosphorylation enrichment
18 | STASGYSDVTD [DTX2_Y425] | 0.487
19 | AGQEDCDRLRP [CDC42_Y64_Y64C] | 0.586
20 | AFPGEYIPTVF [RAC1_Y32] | 0.617
21 | VGNPAYRSFSN [IL4R_Y497_A492V] | 0.435
22 | VERRVYAEDPF [PCCA_Y401_C398R_YF] | 0.481
23 | GEIQEYGAPLD [ABCC1_Y1508_S1512L] | 0.798
24 | EFISESCGEII [EZH2_Y641_Y641S] | 0.592
25 | IHADIYRWFNI [MARS1_Y344] | 6.99
26 | LRYDVYGGENE [STOX1_Y610_E608D] | 1.29
27 | LDLSFYPTSSS [EMD_Y182_YF] | 0.902
28 | YGAHNHHPLPV [OAT_Y55_Y55H] | 0.473
29 | SSPVPYLSPET [TJP1_Y931] | 0.627
30 | ADTETYLLEKS [MYH7_Y266_I263T] | 0.745
31 | KFDLMYAKWAF [TUBA3E_Y399] | 0.866
32 | FKELVYETVRV [FSHB_Y76] | 1.57
33 | TSSAIYMNLAS [GATAD2B_Y317] | 1.94

Tested on: Fer (mouse)
Assay: as above

Row | Sequence | phosphorylation enrichment
34 | KSEKVYTRHGV [FLOT1_Y56] | 0.417
35 | KFLVGYEMLAQ [GALT_Y339_M336L] | 0.395
36 | QWRTKYEMDAI [MYH7_Y1375_T1377M] | 0.365
37 | GGCQEYTGAPY [NAXD_Y85] | 0.524
38 | CITIHYNFMCN [TP53_Y234_T230I_YF] | 0.574
39 | QLQTTYPSSDN [MAX_Y115_N114T] | 0.789
40 | FTGDIYSSSNL [LZTR1_Y141_N143S_YF] | 2.31
41 | QPGDICHQTWA [GBA_Y244_Y244C] | 0.462
42 | VIERSYTSADG [DHCR7_Y382_C380R] | 0.454
43 | KVKGEYDMTVP [AHNAK_Y964] | 0.637
44 | SVQVEYMKTIL [GLYATL2_Y127_D126E] | 0.425
45 | EKLQQYLAPGM [EPHB3_Y600_I601L] | 0.54
46 | DVAKEYGHLLP [HRC_Y99_S96A] | 0.403
47 | KACNPYKPPGP | 0.521
48 | VFGVSYDEYRY [CFTR_Y512_I507V] | 0.453
49 | NFFEFYVDDPP [GCHFR_Y48_YF] | 0.557
50 | RQGKDYVGAIP [KDR_Y951] | 0.361

Row | Sequence | phosphorylation enrichment
51 | STASGYSDVTD [DTX2_Y425] | 0.398
52 | AGQEDCDRLRP [CDC42_Y64_Y64C] | 0.439
53 | AFPGEYIPTVF [RAC1_Y32] | 0.509
54 | VGNPAYRSFSN [IL4R_Y497_A492V] | 0.509
55 | VERRVYAEDPF [PCCA_Y401_C398R_YF] | 0.39
56 | GEIQEYGAPLD [ABCC1_Y1508_S1512L] | 0.528
57 | EFISESCGEII [EZH2_Y641_Y641S] | 0.484
58 | IHADIYRWFNI [MARS1_Y344] | 8.95
59 | LRYDVYGGENE [STOX1_Y610_E608D] | 1.03
60 | LDLSFYPTSSS [EMD_Y182_YF] | 0.799
61 | YGAHNHHPLPV [OAT_Y55_Y55H] | 0.693
62 | SSPVPYLSPET [TJP1_Y931] | 0.453
63 | ADTETYLLEKS [MYH7_Y266_I263T] | 0.607
64 | KFDLMYAKWAF [TUBA3E_Y399] | 5.85
65 | FKELVYETVRV [FSHB_Y76] | 18.5
66 | TSSAIYMNLAS [GATAD2B_Y317] | 3.71

Target: Fyn (UniProt P06241)
Sequence (P06241 whole entry, looked up): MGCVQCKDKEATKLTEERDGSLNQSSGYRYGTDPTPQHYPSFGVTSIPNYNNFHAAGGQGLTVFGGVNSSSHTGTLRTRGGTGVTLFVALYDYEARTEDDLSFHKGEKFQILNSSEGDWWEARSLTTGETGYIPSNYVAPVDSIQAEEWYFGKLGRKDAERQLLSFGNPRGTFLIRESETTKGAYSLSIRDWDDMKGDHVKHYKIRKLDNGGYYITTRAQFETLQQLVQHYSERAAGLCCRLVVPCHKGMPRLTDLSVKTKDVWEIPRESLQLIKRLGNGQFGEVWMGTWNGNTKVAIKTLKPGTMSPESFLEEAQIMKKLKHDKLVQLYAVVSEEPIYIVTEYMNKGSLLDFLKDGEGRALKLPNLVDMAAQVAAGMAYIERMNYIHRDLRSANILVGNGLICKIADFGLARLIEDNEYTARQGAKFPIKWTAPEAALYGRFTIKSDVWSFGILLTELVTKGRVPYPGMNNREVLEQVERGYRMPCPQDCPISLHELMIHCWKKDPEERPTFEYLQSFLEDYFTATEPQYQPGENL
Assay: as above

Row | Sequence | phosphorylation enrichment
67 | KSEKVYTRHGV [FLOT1_Y56] | 0.254
68 | KFLVGYEMLAQ [GALT_Y339_M336L] | 0.386
69 | QWRTKYEMDAI [MYH7_Y1375_T1377M] | 0.773
70 | GGCQEYTGAPY [NAXD_Y85] | 0.525
71 | CITIHYNFMCN [TP53_Y234_T230I_YF] | 0.46
72 | QLQTTYPSSDN [MAX_Y115_N114T] | 0.35
73 | FTGDIYSSSNL [LZTR1_Y141_N143S_YF] | 5.8
74 | QPGDICHQTWA [GBA_Y244_Y244C] | 0.478
75 | VIERSYTSADG [DHCR7_Y382_C380R] | 0.496
76 | KVKGEYDMTVP [AHNAK_Y964] | 0.434
77 | SVQVEYMKTIL [GLYATL2_Y127_D126E] | 0.413
78 | EKLQQYLAPGM [EPHB3_Y600_I601L] | 0.398
79 | DVAKEYGHLLP [HRC_Y99_S96A] | 0.422
80 | KACNPYKPPGP | 0.521
81 | VFGVSYDEYRY [CFTR_Y512_I507V] | 0.802
82 | NFFEFYVDDPP [GCHFR_Y48_YF] | 0.569
83 | RQGKDYVGAIP [KDR_Y951] | 0.552

Row | Sequence | phosphorylation enrichment
84 | STASGYSDVTD [DTX2_Y425] | 0.447
85 | AGQEDCDRLRP [CDC42_Y64_Y64C] | 0.436
86 | AFPGEYIPTVF [RAC1_Y32] | 0.381
87 | VGNPAYRSFSN [IL4R_Y497_A492V] | 0.441
88 | VERRVYAEDPF [PCCA_Y401_C398R_YF] | 0.554
89 | GEIQEYGAPLD [ABCC1_Y1508_S1512L] | 0.514
90 | EFISESCGEII [EZH2_Y641_Y641S] | 0.484
91 | IHADIYRWFNI [MARS1_Y344] | 2.23
92 | LRYDVYGGENE [STOX1_Y610_E608D] | 1.48
93 | LDLSFYPTSSS [EMD_Y182_YF] | 0.968
94 | YGAHNHHPLPV [OAT_Y55_Y55H] | 0.415
95 | SSPVPYLSPET [TJP1_Y931] | 0.541
96 | ADTETYLLEKS [MYH7_Y266_I263T] | 0.603
97 | KFDLMYAKWAF [TUBA3E_Y399] | 1.43
98 | FKELVYETVRV [FSHB_Y76] | 11.2
99 | TSSAIYMNLAS [GATAD2B_Y317] | 6.11

Target: Fes (UniProt P07332)
Sequence (P07332 whole entry, looked up): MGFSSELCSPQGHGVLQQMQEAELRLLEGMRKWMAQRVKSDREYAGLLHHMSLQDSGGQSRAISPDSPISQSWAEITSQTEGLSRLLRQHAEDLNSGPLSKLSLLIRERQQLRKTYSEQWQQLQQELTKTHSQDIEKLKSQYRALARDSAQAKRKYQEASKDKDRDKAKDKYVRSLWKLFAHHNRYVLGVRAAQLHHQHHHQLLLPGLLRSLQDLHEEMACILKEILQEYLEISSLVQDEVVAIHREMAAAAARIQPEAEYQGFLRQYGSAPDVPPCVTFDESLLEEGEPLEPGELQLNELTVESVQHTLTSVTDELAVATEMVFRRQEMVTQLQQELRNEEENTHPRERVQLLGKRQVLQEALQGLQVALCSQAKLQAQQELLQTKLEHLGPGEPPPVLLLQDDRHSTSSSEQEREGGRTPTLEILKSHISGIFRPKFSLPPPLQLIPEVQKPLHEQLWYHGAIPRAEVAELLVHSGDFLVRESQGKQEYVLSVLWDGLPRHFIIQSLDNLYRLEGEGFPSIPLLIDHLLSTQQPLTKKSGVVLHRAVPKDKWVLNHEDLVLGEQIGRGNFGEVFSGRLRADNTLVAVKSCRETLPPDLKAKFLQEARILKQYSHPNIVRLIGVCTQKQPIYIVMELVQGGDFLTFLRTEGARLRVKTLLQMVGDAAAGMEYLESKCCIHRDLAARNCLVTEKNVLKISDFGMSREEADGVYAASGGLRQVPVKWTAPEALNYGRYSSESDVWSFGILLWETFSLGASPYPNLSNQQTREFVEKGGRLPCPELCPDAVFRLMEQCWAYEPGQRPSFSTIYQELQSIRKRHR
Assay: as above

Row | Sequence | phosphorylation enrichment
100 | KSEKVYTRHGV [FLOT1_Y56] | 0.527
101 | KFLVGYEMLAQ [GALT_Y339_M336L] | 0.977
102 | QWRTKYEMDAI [MYH7_Y1375_T1377M] | 0.964
103 | GGCQEYTGAPY [NAXD_Y85] | 1.06
104 | CITIHYNFMCN [TP53_Y234_T230I_YF] | 1.44
105 | QLQTTYPSSDN [MAX_Y115_N114T] | 0.752
106 | FTGDIYSSSNL [LZTR1_Y141_N143S_YF] | 0.652
107 | QPGDICHQTWA [GBA_Y244_Y244C] | 1.08
108 | VIERSYTSADG [DHCR7_Y382_C380R] | 0.692
109 | KVKGEYDMTVP [AHNAK_Y964] | 0.744
110 | SVQVEYMKTIL [GLYATL2_Y127_D126E] | 0.893
111 | EKLQQYLAPGM [EPHB3_Y600_I601L] | 0.863
112 | DVAKEYGHLLP [HRC_Y99_S96A] | 0.822
113 | KACNPYKPPGP | 0.663
114 | VFGVSYDEYRY [CFTR_Y512_I507V] | 0.959
115 | NFFEFYVDDPP [GCHFR_Y48_YF] | 1.28
116 | RQGKDYVGAIP [KDR_Y951] | 0.832

Row | Sequence | phosphorylation enrichment
117 | STASGYSDVTD [DTX2_Y425] | 0.84
118 | AGQEDCDRLRP [CDC42_Y64_Y64C] | 0.882
119 | AFPGEYIPTVF [RAC1_Y32] | 0.828
120 | VGNPAYRSFSN [IL4R_Y497_A492V] | 0.546
121 | VERRVYAEDPF [PCCA_Y401_C398R_YF] | 0.76
122 | GEIQEYGAPLD [ABCC1_Y1508_S1512L] | 1.09
123 | EFISESCGEII [EZH2_Y641_Y641S] | 1.19
124 | IHADIYRWFNI [MARS1_Y344] | 1.42
125 | LRYDVYGGENE [STOX1_Y610_E608D] | 3.02
126 | LDLSFYPTSSS [EMD_Y182_YF] | 1.77
127 | YGAHNHHPLPV [OAT_Y55_Y55H] | 0.696
128 | SSPVPYLSPET [TJP1_Y931] | 0.835
129 | ADTETYLLEKS [MYH7_Y266_I263T] | 1.1
130 | KFDLMYAKWAF [TUBA3E_Y399] | 1.26
131 | FKELVYETVRV [FSHB_Y76] | 6.92
132 | TSSAIYMNLAS [GATAD2B_Y317] | 1.01
